Measurements as given in patent US20130052176, “APTAMER FOR NGF AND USE THEREOF” (SHIONOGI & CO., LTD, published 2013).

Tests used:
Details in all cases: tags: amine-coupled to CM5 chip in SPR; soluble in cell assays; chain copies: 2
[1] = target: T1, NGF (nerve growth factor) (human, UniProt P01138 P01138:122-241); assay: cell_activity; neurite outgrowth, NGF 0.38 nM; SPR binding; TF-1 IC50 0.175 nM
Experimental: (§1) The neurite outgrowth inhibitory activity of the aptamer obtained in Example 1 was evaluated by using Neuroscreen-1 cell, which is a subclone of PC-12 cells.
(§2) The cells (2500 cells per well) were cultured for one day in an RPMI-1640 medium containing 2.5% horse serum and 1.25% fetal bovine serum in a 96 well flat-bottom plate coated with collagen type IV. […] Two days later, the cytoplasm and nuclei were stained using Cellomics Neurite Outgrowth Kit (manufactured by Thermo Scientific), and neurite length per cell was measured by Cellomics ArrayScan VTI (manufactured by Thermo Scientific). With the neurite length per cell obtained by the addition of NGF alone as inhibitory activity 0%, and that of the cell obtained by NGF free culture for 2 days as inhibitory activity 100%, the inhibitory activity of the aptamer was calculated from the neurite length per cell obtained by culturing with the addition of NGF and the aptamer in mixture. When the inhibitory activity was 0% or below, ‘0%’ is indicated.

[2] = target: T1, NGF (nerve growth factor); assay: cell_activity; neurite outgrowth, NGF 0.38 nM; SPR binding; TF-1 IC50 0.1 nM
[3] = target: T1, NGF (nerve growth factor); assay: cell_activity; neurite outgrowth, NGF 0.38 nM; SPR binding; TF-1 IC50 0.081 nM
[4] = target: T1, NGF (nerve growth factor); assay: cell_activity; neurite outgrowth, NGF 0.38 nM; SPR binding; TF-1 IC50 0.110 nM
Experimental: as §1, §2

[5] = target: T1, NGF (nerve growth factor); assay: cell_activity; neurite outgrowth, NGF 0.38 nM; SPR binding; TF-1 IC50 0.041 nM
Experimental: as §1, §2

[6] = target: T1, NGF (nerve growth factor); assay: cell_activity; neurite outgrowth, NGF 0.38 nM; SPR binding; TF-1 IC50 0.105 nM
Experimental: as §1, §2

[7] = target: T1, NGF (nerve growth factor); assay: cell_activity; neurite outgrowth, NGF 0.38 nM; SPR binding; TF-1 IC50 0.09 nM
Experimental: as §1, §2

[8] = target: T1, NGF (nerve growth factor); assay: cell_activity; neurite outgrowth, NGF 0.38 nM; SPR binding; TF-1 IC50 0.052 nM
Experimental: as §1, §2

[9] = target: T1, NGF (nerve growth factor); assay: cell_activity; neurite outgrowth, NGF 0.38 nM; SPR binding; TF-1 IC50 0.083 nM
Experimental: as §1, §2

[10] = target: T1, NGF (nerve growth factor); assay: cell_activity; neurite outgrowth, NGF 0.38 nM; SPR binding; TF-1 IC50 0.211 nM
Experimental: as §1, §2

[11] = target: T1, NGF (nerve growth factor); assay: cell_activity; neurite outgrowth, NGF 0.38 nM; SPR binding; TF-1 IC50 0.058 nM
[12] = target: T1, NGF (nerve growth factor); assay: cell_activity; neurite outgrowth, NGF 0.38 nM; SPR binding; TF-1 IC50 0.186 nM
Experimental: as §1, §2

[13] = target: T1, NGF (nerve growth factor); assay: cell_activity; neurite outgrowth, NGF 1.1 nM; SPR binding; TF-1 IC50 3.4 nM
[14] = target: T1, NGF (nerve growth factor); assay: cell_activity; neurite outgrowth, NGF 1.1 nM; SPR binding; blocks NGF-TrkA and NGF-p75; TF-1 IC50 2.1 nM
Experimental: as §1, §2

T1 sequence (P01138 122-241, one chain of several): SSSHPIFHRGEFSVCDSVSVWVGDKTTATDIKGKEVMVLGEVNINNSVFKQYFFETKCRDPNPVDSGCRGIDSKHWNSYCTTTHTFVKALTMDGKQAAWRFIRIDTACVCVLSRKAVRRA

B1: aptamer ID 26(21) (mixed)
RNA: GGGAGACUCGCCAGAGUUGAAAGAAACCCAAAUAAGUGUGCGCAC
modifications: 2'-F pyrimidines except dC at 7; 2'-OMe purines except 2'-OH at 3,19,20,26; 5' idT and 3' idT
B1 was tested, and the IC50 [1] was 0.283 nM.

B2: aptamer ID 26(1) (ssRNA)
RNA: GGGAGACUCGCCAGAGUUGAAAGAAACCCAAAUAAGUGUGCGCAC
modifications: 2'-F pyrimidines; 2'-OMe purines except 2'-OH at 3,5,19-23,25; 5' idT and 3' idT
B2 gave an IC50 [2] of 0.06 nM.

B3: aptamer ID 26(15) (ssRNA)
RNA: GGGAGACUCGCCAGAGUUGAAAGAAACCCAAAUAAGUGUGCGCAC
modifications: 2'-F pyrimidines; 2'-OMe purines except 2'-OH at 3,5,19,20,24,26; 5' idT and 3' idT
For B3, the IC50 [3] was 0.067 nM.

With GGGAGACUCGCCAGAGUUGAAAGAAACCCAAAUAAGUGUGCGCAC (ssRNA, 2'-F pyrimidines; 2'-OMe purines except 2'-OH at 3,19,20,24; 5' idT and 3' idT) [aptamer ID 26(20)] the IC50 [4] was 0.016 nM.

B4: aptamer ID 26(9) (ssRNA)
RNA: GGGAGACUCGCCAGAGUUGAAAGAAACCCAAAUAAGUGUGCGCAC
modifications: 2'-F pyrimidines; 2'-OMe purines except 2'-OH at 3,5,19-22,26; 5' idT and 3' idT
B4 was tested, and the IC50 [5] was 0.052 nM.

GGGAGACUCGCCAGAGUUGAAAGAAACCCAAAUAAGUGUGCGCAC (ssRNA, 2'-F pyrimidines; 2'-OMe purines except 2'-OH at 3,19,20; 5' idT and 3' idT) [aptamer ID 26(18)] was tested, and the IC50 [6] was 0.084 nM.

B5: aptamer ID 26(14) (ssRNA)
RNA: GGGAGACUCGCCAGAGUUGAAAGAAACCCAAAUAAGUGUGCGCAC
modifications: 2'-F pyrimidines; 2'-OMe purines except 2'-OH at 3,5,19-21,24,26; 5' idT and 3' idT
B5 gave an IC50 [7] of 0.082 nM.

B6: aptamer ID 26(12) (ssRNA)
RNA: GGGAGACUCGCCAGAGUUGAAAGAAACCCAAAUAAGUGUGCGCAC
modifications: 2'-F pyrimidines; 2'-OMe purines except 2'-OH at 3,19-22,24,26; 5' idT and 3' idT
For B6, the IC50 [8] was 0.036 nM.

B7: aptamer ID 26(50) (mixed)
RNA: GGGAGACUCGCCAGAGUUGAAAGAAACCCAAAUAAGUGUGCGCAC
modifications: 2'-F pyrimidines except 2'-OMe at 7,11,12,17,33,45, dT at 8,37 and dC at 9,29; 2'-OMe purines except 2'-OH at 3,19,20,26; 5' idT and 3' idT
B7 gave an IC50 [9] of 0.046 nM.

B8: aptamer ID 26(31) (ssRNA)
RNA: GGGAGACUCGCCAGAGUUGAAAGAAACCCAAAUAAGUGUGCGCAC
modifications: 2'-F pyrimidines except 2'-OMe at 7; 2'-OMe purines except 2'-OH at 3,19,20,26; 5' idT and 3' idT
With B8 the IC50 [10] was 0.3 nM.

In the case of GGGAGACUCGCCAGAGUUGAAAGAAACCCAAAUAAGUGUGCGCAC (ssRNA, 2'-F pyrimidines; 2'-OMe purines except 2'-OH at 3,5,19-22; 5' idT and 3' idT) [aptamer ID 26(11)], the IC50 [11] is reported as 0.087 nM.

B9: aptamer ID 26(22) (mixed)
RNA: GGGAGACUCGCCAGAGUUGAAAGAAACCCAAAUAAGUGUGCGCAC
modifications: 2'-F pyrimidines except dT at 8; 2'-OMe purines except 2'-OH at 3,19,20,26; 5' idT and 3' idT
B9 was tested, and the IC50 [12] was 0.293 nM.

GGGAGACUCGCCAGAGUUGAAAGAAACCCAAAUAAGUGUGCGCAC (ssRNA, 2'-F pyrimidines; 2'-OMe at 30-32,34,35; other purines 2'-OH) [aptamer ID 26(5)] was tested, and the IC50 [13] was under 1 nM.

B10: aptamer ID 63 (mixed)
mixed: GGGAUAAAAAUAGAGTUUGATAAACACCUGUAUUAAAACCC
modifications: 5' cholesterol; 3' idT; 2'-F pyrimidines (except dT at 16,21); 2'-OMe other purines except 2'-OH at 4,7,30,37,38
With B10 the IC50 [14] was under 3 nM.
